Reference: patent US20160177336A1 (EIDGENOESSISCHE TECHNISCHE HOCHSCHULE ZURICH, published 2016)

Molecular target: T1, Itc1p (yeast, UniProt P53125 1-1264)
T1 construct: Co-expressed with Isw2p in insect cells from MultiBac baculovirus; also called 145 kDa Itc1p; subunit of the yeast Isw2 chromatin remodelling complex
T1 sequence (looked up): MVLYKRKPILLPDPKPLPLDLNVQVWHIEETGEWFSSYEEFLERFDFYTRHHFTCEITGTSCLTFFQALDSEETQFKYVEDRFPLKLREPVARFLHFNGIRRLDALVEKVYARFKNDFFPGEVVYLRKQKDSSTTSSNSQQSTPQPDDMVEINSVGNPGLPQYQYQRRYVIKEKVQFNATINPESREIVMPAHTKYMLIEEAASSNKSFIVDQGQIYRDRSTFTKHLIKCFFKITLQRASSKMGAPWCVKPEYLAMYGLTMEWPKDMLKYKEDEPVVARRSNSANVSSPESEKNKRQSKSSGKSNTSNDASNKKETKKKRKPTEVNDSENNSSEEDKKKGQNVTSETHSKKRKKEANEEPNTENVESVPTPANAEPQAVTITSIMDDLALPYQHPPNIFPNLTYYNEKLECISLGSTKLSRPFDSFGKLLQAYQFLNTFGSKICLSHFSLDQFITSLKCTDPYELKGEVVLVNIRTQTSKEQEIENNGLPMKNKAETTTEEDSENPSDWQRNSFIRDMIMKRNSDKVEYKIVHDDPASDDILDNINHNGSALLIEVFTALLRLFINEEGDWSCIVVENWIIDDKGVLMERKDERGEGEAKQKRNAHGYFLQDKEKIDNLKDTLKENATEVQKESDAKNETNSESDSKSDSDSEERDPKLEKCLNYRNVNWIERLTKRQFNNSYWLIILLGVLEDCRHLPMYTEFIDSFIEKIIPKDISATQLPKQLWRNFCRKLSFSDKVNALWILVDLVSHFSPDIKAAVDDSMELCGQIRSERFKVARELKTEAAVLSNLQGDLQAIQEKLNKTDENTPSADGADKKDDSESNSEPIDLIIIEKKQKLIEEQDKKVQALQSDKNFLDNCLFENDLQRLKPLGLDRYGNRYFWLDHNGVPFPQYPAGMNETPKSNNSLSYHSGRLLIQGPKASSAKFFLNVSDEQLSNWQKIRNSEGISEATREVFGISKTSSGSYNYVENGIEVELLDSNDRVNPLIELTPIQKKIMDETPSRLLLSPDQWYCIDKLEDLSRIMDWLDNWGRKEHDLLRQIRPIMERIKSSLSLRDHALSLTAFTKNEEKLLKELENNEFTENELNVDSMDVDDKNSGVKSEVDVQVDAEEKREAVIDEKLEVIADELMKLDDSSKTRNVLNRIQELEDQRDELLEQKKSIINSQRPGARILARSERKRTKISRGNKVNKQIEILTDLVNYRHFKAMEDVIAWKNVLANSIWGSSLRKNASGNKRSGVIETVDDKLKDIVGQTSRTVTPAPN
Experiment: co-expression in insect cells from MultiBac baculovirus; complex purified (FIG. 8)
Excerpt: In a test experiment the yeast Isw2 chromatin remodelling complex consisting of the 130 kDa Isw2p and the 145 kDa Itc1p proteins was expressed. One version of MultiBac was created with both proteins integrated at the attTn7 site, and a second version with Isw2p integrated at the attTn7 site and Itc1p inserted at the LoxP site. […] For further detail see FIG. 8.

B1: Isw2p (other, yeast, UniProt Q08773 1-1120, looked up)
chain: MTTQQEEQRSDTKNSKSESPSEVLVDTLDSKSNGSSDDDNIGQSEELSDKEIYTVEDRPPEYWAQRKKKFVLDVDPKYAKQKDKSDTYKRFKYLLGVTDLFRHFIGIKAKHDKNIQKLLKQLDSDANKLSKSHSTVSSSSRHHRKTEKEEDAELMADEEEEIVDTYQEDIFVSESPSFVKSGKLRDYQVQGLNWLISLHENKLSGILADEMGLGKTLQTISFLGYLRYVKQIEGPFLIIVPKSTLDNWRREFLKWTPNVNVLVLHGDKDTRADIVRNIILEARFDVLITSYEMVIREKNALKRLAWQYIVIDEAHRIKNEQSALSQIIRLFYSKNRLLITGTPLQNNLHELWALLNFLLPDIFGDSELFDEWFEQNNSEQDQEIVIQQLHSVLNPFLLRRVKADVEKSLLPKIETNVYVGMTDMQIQWYKSLLEKDIDAVNGAVGKREGKTRLLNIVMQLRKCCNHPYLFEGAEPGPPYTTDEHLIFNSGKMIILDKLLKRLKEKGSRVLIFSQMSRLLDILEDYCYFRDFEYCRIDGSTSHEERIEAIDEYNKPNSEKFVFLLTTRAGGLGINLVTADTVILFDSDWNPQADLQAMDRAHRIGQKKQVHVYRFVTENAIEEKVIERAAQKLRLDQLVIQQGTGKKTASLGNSKDDLLDMIQFGAKNMFEKKASKVTVDADIDDILKKGEQKTQELNAKYQSLGLDDLQKFNGIENQSAYEWNGKSFQKKSNDKVVEWINPSRRERRREQTTYSVDDYYKEIIGGGSKSASKQTPQPKAPRAPKVIHGQDFQFFPKELDALQEKEQLYFKKKVNYKVTSYDITGDIRNEGSDAEEEEGEYKNAANTEGHKGHEELKRRIEEEQEKINSAPDFTQEDELRKQELISKAFTNWNKRDFMAFINACAKYGRDDMENIKKSIDSKTPEEVEVYAKIFWERLKEINGWEKYLHNVELGEKKNEKLKFQETLLRQKIEQCKHPLHELIIQYPPNNARRTYNTLEDKFLLLAVNKYGLRADKLYEKLKQEIMMSDLFTFDWFIKTRTVHELSKRVHTLLTLIVREYEQPDANKKKRSRTSATREDTPLSQNESTRASTVPNLPTTMVTNQKDTNDHVDKRTKIDQEA
notes: Co-expressed with Itc1p in insect cells from MultiBac baculovirus; also called 130 kDa Isw2p; subunit of the yeast Isw2 chromatin remodelling complex
B1: binds.
